Data as given in the DeepSol protein solubility set.

Experiment: soluble on expression in E. coli; label from the status in PepcDB or PDB records

Sequence | soluble on expression in E. coli
MIIAGVDIGNSTTEVALAKVNGDEIRFLASGISNTTGIKGTPQNVEGVRHALEDAVRKANLTIKDIDLLRINEATPVISDIAMEAITETIITESTMIGHNPTTPGGVGLGIGITIPIFELEKCKHGEEVIVVIPKNVDYEDAAKIINNAFSKGVEVKGAIAQKDDGVLIATRLQRRIPIVDEVKQIEKVPIGMLACVEVAEPGYTIKTLSNPYGIASVFNLTAEETKNIVPVARALIGNRSAVVIRTPKGEVQERKIPAGTLIIKGNNRTFTVDIEEGAEAIMSAVESTWPLVDAEGTPGTNVGGLIARIKETMADVTGQDSSNIQIQDVLAVDTLVRQKVKGGIAEEFSSENAVALAAMVKSSKLPMEKVAQKIEQEIGIAVEIAGIEANMAIIGALTTPGTELPLAILDLGGGSTDAALMTKNGEVKSVHMAGAGEMVNMLIKTELGIEDKYLVEDIKKYPVCRVESLFSIRLEDGTVRFFKEPLDPRTFARVCLLREDGLLPLPPELNMEKVINVRRNAKRKVFVTNALRALSKVAPAGNIRLIDFVVMVGGSALDFEIPEMISDTLAGYGIVAGRGNIRNVEGPRNAVATGLVLSRCKRK | not soluble
MQLPLSYWIESTQFPTFPRLSENIKTKVAIIGAGITGITTAYLLAKEGIDVVLIDSGRILNGTTGHTTAKVTAQHDLIYDELINHFGVEKARLYYESNNQALQFINKTVQTYKIDCNFSNEDSYLYTTTDNGLRNLSKEYEAYQKLNIPCDYVQSLSIPIPVQSALVMKNQAQFHPLLYLKTLLEKFVEMGGKVYEQTTAMDVEKGDYSQIITKEGHHITCEYVVSCSHFPFYDANSFFFTRMYAERSYALAIKAKTEYPGGMYLSIDDPKRSLRYITNNGEKLILIGGESHKTGQGINTMLHYEALYSFAEATFGIDEVSYRWSAQDLITLDKLPYIGHINERNPNIFVATGYRKWGMTTGTAAAHLLKDSILKVHSPYKELYAPSRFHANPDIKTFLSQNIDVAKHLIAGLEHHHHHH | not soluble
MARYYVLDLSEDFRRELRETLAEMVNPVEVHVFLSKSGCETCEDTLRLMKLFEEESPTRNGGKLLKLNVYYRESDSDKFSEFKVERVPTVAFLGGEVRWTGIPAGEEIRALVEVIMRLSEDESGLEDATKEALKSLKGRVHIETIITPSCPYCPYAVLLAHMFAYEAWKQGNPVILSEAVEAYENPDIADKYGVMSVPSIAINGYLVFVGVPYEEDFLDYVKSAAEGRLTVKGPIRAGEAEEL | soluble
AHHHHHHGSEIKYRPEELTKLPRSVEYREGKVYMINQRLLPREFKVEEFTTVEAVAEAIKNMTVRGAPAIGAAAAFGLALYAETSKAKTKDEFFDGFYRAYETLKNTRPTAVNLFWALNRIKKLVEEHREDSLDEIKRLIVEEAQKIADEDVEANLRMGHYGAEVLPEGNILTHCNAGSLATVHLGTVGAVVRVMHKEGTLKLLWLDETRPVLQGARLSAWEYSYDGLNVKLIADNAAAFVMQQGKVDAIIVGADRIVANGDFANKIGTYMLAVLAKEHGIPFFTVAPLSSIDMSLSSGKEIPIEERSPEEVLTCGGCRIAPDVPVYNPAFDVTPHKYLTGIITDRGVVWPPFKRNLKKLFETL | soluble
MSLKNIFSVLEERVERTPDDNLVEYKNAQGEWAAFTAAEFKNKVVALAKGLIARGVMPGDSVSIIAHTCWQWTALDVAIMSIGALTVPVYETNSPAQVKMIFNDANVKMAFAEDDFQRDKIESVRDQCPDLGDVYVIGLGAIDTIIEYGRAVSDAEFLEREQAVKGSDLATIVYTSGSTGTPKGVELTHANFVFITYSGVNSMPDIAMKPNRRLLLFLPLAHVFARYMQFFCFAGNVSLGLSSNLKTILADFKAFKPTFILAVPRIFEKIYNAASQKAGAGFKGRVFADATQTACDWSHAQQSGGSIPLALNAKHALYNKLVYSSIMEVFGGHVEYAVSGGAPLDSSIAHFFNGVGLSLLEGYGMTETCAPSSVNPTEGYKIGTIGLPLQGVTMGVDEEGELCIKSPAVCAGYHNNPDVTKQQIVDGWLHTGDLGSIDDDGFVSIVGRKKDLIITAGGKNVSPCEMEASIMTSPVVSQCVMIGDRKPFIAAIISLDLAETNLWLESKGAEQVADLDEASKNPIVRAEVERAVNKANELASRAESIRKFEIVPDEFTEENGLVTPSMKARRQAVVEHYRTLIDKEGHHHHHH | not soluble
MAENKLGRDIPRKYANQYGVFEGELAHIKSYKESSRQVKPVKPSDDKLLSSIHEAIEKTRLKDGMTISFHHHFREGDYVMNMVLDEIAKMGIKDISIAPSSIANVHEPLIDHIKNGVVTNITSSGLRDKVGAAISEGIMENPVIIRSHGGRARAIATDDIHIDVAFLGAPSSDAYGNANGTRGKTTCGSLGYAMIDAKYADQVVIVTDTLVPYPNTPISIPQTDVDYIVVVDAIGDPEGIAKGATRYTKNPKELLIAEYAAKVITSSPYYKEGFSFQTGTGGASLAVTRFMREQMIKDDIKANFALGGITNAMVELLEEGLVDKILDVQDFDHPSAVSLDRNAEKHYEIDANMYASPLSKGSVINQLDICVLSALEVDTNFNVNVMTGSDGVIRGASGGHCDTAFAAKMSLVISPLVRGRIPTFVDKVNTVITPGTSVDVVVTEVGIAINPNRPDLIEYFKDLKVPQLTIEELKEKAYAIVGNPQPIQYGDKIVALIEYRDGSLIDVVRNVLEHHHHHH | soluble
RKQDTQRALHLLEEYRSKLSQTEDRQLRSSIERVISIFQSNLFQALIDIQEFYEVTLLDN | soluble
MSITLITAAPGAGKTIFAVWNIIKPAVEADRVVYTAGIPELKLPAISLSYSQVKRWADRELVEVENPSGIPIPDDEKPSRLQNITEGALIVIDEVQYLWPASGSREPGEDIKYLTKHRHHGLEFVLITQAPQLIHKNVLAVVDKHIHMLSDWHGRKRYEWPEYCATVRATSSKLKAVSQRYELPKEAYGLYRSASMHI | not soluble
SGRPFVEMYSEIPEIIHMTEGRELVIPCRVTSPNITVTLKKFPLDTLIPDGKRIIWDSRKGFIISNATYKEIGLLTCEATVNGHLYKTNYLTHRQTNTIIDVQISTPRPVKLLRGHTLVLNCTATTPLNTRVQMTWSYPDEKNKRASVRRRIDQSNSHANIFYSVLTIDKMQNKDKGLYTCRVRSGPSFKSVNTSVHIYDKAFITVKHR | soluble
MLKSELRKKVLHKRINLSEEERRRLSEKVISNLKSLPEFKKSKKVALYCPIKGEVDLTPLFPEVLKEKELILPKVEGNEISLYRVHSPACLGVGAFGIMEPVEGERVNPEDVDFIAVPGVAFDLEGYRLGFGKGYYDRLLKRVKGLKVGVAYSFQVFERLPRDAWDIPVDVLVTEKNVRRLRDGRSLEHHHHHH | soluble
MSANDFKPETWTSSANEALRVSIVGENAVQFSPLFTYPIYGDSEKIYGYKDLIIHLAFDSVTFKPYVNVKYSAKLGDDNIVDVEKKLLSFLPKDDVIVRDEAKWVDCFAEERKTHNLSDVFEKVSEYSLNGEEFVVYKSSLVDDFARRMHRRVQIFSLLFIEAANYIDETDPSWQIYWLLNKKTKELIGFVTTYKYWHYLGAKSFDEDIDKKFRAKISQFLIFPPYQNKGHGSCLYEAIIQSWLEDKSITEITVEDPNEAFDDLRDRNDIQRLRKLGYDAVFQKHSDLSDEFLESSRKSLKLEERQFNRLVEMLLLLNNS | soluble
MNPTFLEFIGANQRSSCGYCKNDRGERTPARSAKSGAWAHSMTVNDYSGLLDVGWRRSGRYLYKPDNRVTCCPQYTIRLDVTKFKMSRSQKRAMRQMNEFLATGKRPVCGIKEEDAPVEMNLKGSGSQSEQSKKNLKSHEVSTKKMKDADRPVLTKKEIRNKKFEEKCRQKNLDPDVVRTERRQKDAARQRTIQSYIDEARPDWKHKLEVKLVSLGGDEFGTRDNESFELYKNYQHTIHKDEDCRLAGFRRFLCDSPLKKEQRGGIELGSFHLWFLLDDKLIAVCVVDILPKCFSAKYMYYNPEYSFLSLGTYTALREIEQTQRLHAIYSNLKYYYMGYYIHSCPKMRYKAKFRPSDLLCDQSFRWVDFNSCRDLLDGSTCSNGFSEFCPGAPRPASPVVDTLLVFSNGSITTLSDALTEIPEAAENEQFLANVRDLAHLVGPDLSRVVYYFNELNS | not soluble
